Test results published in patent publication US20220002436A1 (DENALI THERAPEUTICS, published 2022).
Residue numbers refer to the chain shown, from its start.

B1: anti-HER2-DI (antibody, human IgG1, kappa, V domains shown)
VH: QVQLQQPGAELVRPGASVKLSCKASGYSFTGYWMNWLKQRPGQGLEWIGMIHPSDSEIRANQKFRDKATLTVDKSSTTAYMQLSSPTSEDSAVYYCARGTYDGGFEYWGQGTTLTVSS
VL: DIVLTQSPASLVVSLGQRATISCRASQSVSGSRFTYMHWYQQKPGQPPKLLIKYASILESGVPARFSGGGSGTDFTLNIHPVEEDDTATYYCQHSWEIPPWTFGGGTKLEIKR
B2: HER2_DII-35.23.1.1^cisLALA (bispecific antibody, human IgG1, kappa, L234A L235A)
heavy 1: EVQLVESGGGLVQPGGSLRLSCAASGFTFTDYTMDWVRQAPGKGLEWVADVNPNSGGSIYNQRFKGRFTLSVDRSKNTLYLQMNSLRAEDTAVYYCARNLGPSFYFDYWGQGTLVTVSSASTKGPSVFPLAPSSKSTSGGTAALGCLVKDYFPEPVTVSWNSGALTSGVHTFPAVLQSSGLYSLSSVVTVPSSSLGTQTYICNVNHKPSNTKVDKKVEPKSCDKTHTCPPCPAPEAAGGPSVFLFPPKPKDTLMISRTPEVTCVVVDVSHEDPEVKFNWYVDGVEVHNAKTKPREEQYNSTYRVVSVLTVLHQDWLNGKEYKCKVSNKALPAPIEKTISKAKGQPREPQVYTLPPSRDELTKNQVSLWCLVKGFYPSDIAVEWESFGTEWSNYKTTPPVLDSDGSFFLYSKLTVSKEEWQQGFVFSCSVMHEALHNHYTQKSLSLSPGK
heavy 2: not shown
light: not shown
notes: Fc polypeptide dimer-Fab fusion; the second heavy chain is a hole Fc without a TfR site; also called ATV35.23.1.1:Her2_DII huIgG1.LALA.knob
B3: HER2_DII-35.23.4^cisLALA (bispecific antibody, human IgG1, kappa, L234A L235A)
heavy 1: B2 heavy 1 with F386Y
heavy 2: not shown
light: not shown
notes: also called ATV:HER2-DII; ATV:-HER2-DII
B4: HER2_DI-35.23.4^cisLALA (bispecific antibody, human IgG1, kappa, L234A L235A)
heavy 1: QVQLQQPGAELVRPGASVKLSCKASGYSFTGYWMNWLKQRPGQGLEWIGMIHPSDSEIRANQKFRDKATLTVDKSSTTAYMQLSSPTSEDSAVYYCARGTYDGGFEYWGQGTTLTVSSASTKGPSVFPLAPSSKSTSGGTAALGCLVKDYFPEPVTVSWNSGALTSGVHTFPAVLQSSGLYSLSSVVTVPSSSLGTQTYICNVNHKPSNTKVDKKVEPKSCDKTHTCPPCPAPEAAGGPSVFLFPPKPKDTLMISRTPEVTCVVVDVSHEDPEVKFNWYVDGVEVHNAKTKPREEQYNSTYRVVSVLTVLHQDWLNGKEYKCKVSNKALPAPIEKTISKAKGQPREPQVYTLPPSRDELTKNQVSLWCLVKGFYPSDIAVEWESYGTEWSNYKTTPPVLDSDGSFFLYSKLTVSKEEWQQGFVFSCSVMHEALHNHYTQKSLSLSPGK
heavy 2: not shown
light: DIVLTQSPASLVVSLGQRATISCRASQSVSGSRFTYMHWYQQKPGQPPKLLIKYASILESGVPARFSGGGSGTDFTLNIHPVEEDDTATYYCQHSWEIPPWTFGGGTKLEIKRTVAAPSVFIFPPSDEQLKSGTASVVCLLNNFYPREAKVQWKVDNALQSGNSQESVTEQDSKDSTYSLSSTLTLSKADYEKHKVYACEVTHQGLSSPVTKSFNRGEC
notes: Fc polypeptide dimer-Fab fusion; the hole chain has no TfR site and no LALA; also called ATV:HER2-DI; ATV:-HER2-DI

Legend:
[1] = target: T1, HER2 extracellular domain (human, UniProt P04626 23-652); assay: SPR (Biacore T200 or 8K), captured via anti-human IgG (Fc), recombinant HER2 extracellular domain as analyte, 1:1 kinetic fit
T1 construct: extracellular domain; also called HER2 ECD; HER2-ECD
Experimental: (§1) Affinities of mAbs and TfR-binding Fc polypeptides were measured by SPR using a Biacore T200 or a Biacore 8K. Biacore™ Series S CM5 sensor chips were immobilized with monoclonal mouse anti-human IgG (Fc) antibody for HER2 affinity measurements or mouse anti-human Fab for TfR affinity measurements (human antibody or Fab capture kit from GE Healthcare). Serial 3-fold dilutions of analyte (recombinant HER2 extracellular domain or recombinant TfR apical domain) were injected at a flow rate of 30 μL/min. Each sample was analyzed using a 3-minute association and a 10-minute dissociation. After each injection, the chip was regenerated using 3 M MgCl₂. Binding response was corrected by subtracting the RU from a flow cell capturing an irrelevant IgG at similar density. A 1:1 Languir model of simultaneous fitting of kₒₙ and koff was used for kinetics analysis.

[2] = target: T2, Human TfR apical domain (human, UniProt P02786 198-378); assay: SPR (Biacore), antibody captured via anti-human Fab, recombinant TfR apical domain as analyte; the table footnote says NB = no binding
T2 construct: also called apical hTfR; human apical hTfR
T2 sequence (P02786 198-378 limits assumed): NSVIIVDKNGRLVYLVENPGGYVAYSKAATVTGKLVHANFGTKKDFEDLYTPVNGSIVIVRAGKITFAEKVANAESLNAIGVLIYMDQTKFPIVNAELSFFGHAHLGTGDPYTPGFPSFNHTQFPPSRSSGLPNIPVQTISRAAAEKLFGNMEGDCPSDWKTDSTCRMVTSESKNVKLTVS
Experimental: as §1

[3] = target: T2, Human TfR apical domain; assay: SPR (Biacore), apical hTfR
[4] = target: T2, Human TfR apical domain; assay: SPR (Biacore 8K), fusion protein captured with Human Fab Capture Kit, human TfR apical domain as analyte, 1:1 kinetic fit
Experimental: The affinities of Fc polypeptide dimer-antibody variable region fusion proteins for human TfR apical domain and HER2 ECD were determined by surface plasmon resonance using a Biacore™ 8K. Fc polypeptide dimer-antibody variable region fusion proteins were captured using a Human Fab Capture Kit (GE, #28-9583-25) on Biacore™ Series S CM5 sensor chips (GE, #29149604) for measurement of human TfR apical domain binding, or using a Human Fc capture Kit (GE, #29234600) for measurement of human HER2-ECD binding (ACROBiosystems, HE2-H5225). Serial 3-fold dilutions of each antigen were injected at a flow rate of 30 μL/min. The binding of the antigens to captured Fc polypeptide dimer-antibody variable region fusion proteins was monitored for 30 to 300 seconds and then their dissociation was monitored for 30-4,200 seconds in HBS-EP+ running buffer. Binding responses were corrected by subtracting the RU from a blank flow cell. A 1:1 Languir model of simultaneous fitting of kₒₙ and koff was used for kinetics analysis.

[5] = target: HER2 on HER2-positive cancer cells (BT474, OE19, SK-BR-3) (human, UniProt P04626 23-1255); assay: cell-based or functional assay
[6] = target: T2, Human TfR apical domain; assay: SPR (Biacore T200 or 8K), captured via anti-human Fab, recombinant TfR apical domain as analyte, steady-state affinity
Experimental: as §1

Row | Binder | Kd [1] [nM] | koff [1] [s⁻¹] | kon [1] [M⁻¹ s⁻¹] | binding result [2] | Kd [3] [nM] | Kd [4] [nM] | IC50, BT474 cell viability (growth inhibition assay) [5] [nM] | IC50, OE19 cell viability (growth inhibition assay) [5] [nM] | Kd [6] [nM]
1 | B1 | 6.5 | 0.00101 | 154000 | no binding | – | – | – | – | –
2 | B2 | – | – | – | – | 620 | 534 | – | – | –
3 | B3 | – | – | – | – | – | 445 | 1.17 | 0.725 | 450
4 | B4 | 7.5 | 0.00105 | 139000 | – | – | – | – | – | 370
